Several values for one entry are separate records, joined by “and”; a condition that tells them apart may be missing. Equal values may be shown once. Read-outs that look alike come from different tables or passages of the source.
Experiments:
CCR5 lymphocytes = format: in vivo, human
Method: Whole blood specimens were combined separately with the indicated phycoerythrin-labeled anti-CCR5 antibodies or with appropriate isotype-control antibodies. Erythocytes were lysed and leukocytes were stabilized using the ImmunoPrep Reagent System (Beckman Coulter), and the cells were analyzed on a TQ Prep™ flow cytometry workstation (Beckman Coulter). Data were expressed as the percent of CCR5 cells relative to all cells gated in the analysis.
For up to 60 days post-treatment, at the times indicated in FIG. 6, blood was collected and analyzed for CCR5 lymphocyte levels.
Background binding of isotype control antibodies was unchanged.

R5 HIV-2 SLRHC = assay: Inhibition of replication in PBMC cultures, RT activity readout: HIV-2 SLRHC; format: cell-based
Method: (§1) Viruses: All virus isolates were grown and titered exclusively in stimulated PBMC as described previously. […] The HIV-2 isolates used in this study have been previously described (Owen, S. M., Ellenberger, D., Rayfield, M., Wiktor, S., Michel, P., Grieco, M. H., Gao, F., Hahn, B. H., and Lai, R. B. 1998. Genetically Divergent Strains of Human Immunodeficiency Virus Type 2 Use Multiple Coreceptors for Entry. J Virol 72:5425-5432) and were obtained from the NIH AIDS Research and Reference Reagent Program.
(§2) PA14 (Lot # DF-021204) was produced for reagent use in the Research & Development laboratories of Progenics Pharmaceuticals Inc.
(§3) Inhibition of HIV-1 and HIV-2 replication in PBMC cultures: PBMC were isolated from 34 healthy blood donors with Ficoll-Hypaque (all media from Cellgro, Herndon, Va.) and depleted of CD8+ cells using RosetteSep CD8 depletion cocktail (StemCell Technologies) according to the manufacturer's instructions. Equal numbers of cells from each donor were then separately stimulated with 5 ug phytohemagglutinin/ml (Sigma, St. Louis, Mo.) or with surface-immobilized anti-CD3 antibody OKT3 in RPMI 1640 medium containing 10% fetal calf serum, 100 Units of interleukin-2/ml (NIH AIDS Research and Reference Reagent Program), glutamine, and antibiotics (PBMC culture medium) as previously described. After 72 hours, equal numbers of PBMC stimulated by one of these two methods from each donor were combined for use in infection assays as follows. […] The virus inoculum was adjusted to 400 to 2,000 times the TCID50 per ml in PBMC culture medium, and a 50-ul aliquot was added to each culture. The inhibitory doses refer to the concentrations of the agents present at this point in the culture, when virus, cells, and inhibitors were all present at their final concentrations. Reverse Transcriptase (RT) activity was measured on Day 7 post infection (pi) for HIV-1 and Day 10 pi for HIV-2 by the Reverse Transcriptase Assay, Colorimetric kit, #11 468 120 910, Roche (Switzerland) according to the manufacturer's instructions with the following exception: neither ultracentrifugation nor PEG precipitation of the culture supernatants was performed before viral lysis.
(§4) The inhibition data were analyzed using GraphPad Prism software (GraphPad Software, San Diego, Calif.). A 4-parameter logistic fit was used calculate the concentration of inhibitor that afforded a 50% and a 90% reduction in RT activity. […] The % inhibitions where best-fit curve reached a top plateau, also as calculated by GraphPad Prism software, are reported as well as maximum percent inhibition (MPI). […] Inhibition curves with a poor sigmoid fit (R^2<0.7) were excluded from data analysis.

CCR5 chemokine signaling = assay: RANTES-induced calcium mobilization in L1.2-CCR5 cells vs HIV-1JR-FL replication in PBMC (FIG. 4); format: cell-based, human; settings: FIG. 4 legend, result in words
Text: Similar results were obtained for MIP-1α and MIP-1β.

HIV-1JR-CSF = assay: hu-PBL SCID mouse model infected with HIV-1JR-CSF (FIG. 5); format: in vivo; settings: multiple doses after steady state viral levels, FIG. 5 legend
Method: SCID mice were reconstituted with normal human peripheral blood mononuclear cells and infected 2 weeks later with HIV-1JR-CSF. Multiple doses of PRO 140 were administered following attainment of steady state viral levels. Plasma viral loads pre- and post-injection are indicated.

R5 HIV-2 A2270 = assay: Inhibition of replication in PBMC cultures, RT activity readout: HIV-2 A2270; format: cell-based
Method: as §1, §2, §3, §4

B1: PRO 140: humanized IgG4,κ anti-CCR5 monoclonal antibody, humanized version of murine mAb PA14 (antibody, chains of the INN, looked up, V domains shown)
VH: EVQLVESGGGLVKPGGSLRLSCAASGYTFSNYWIGWVRQAPGKGLEWIGDIYPGGNYIRNNEKFKDKTTLSADTSKNTAYLQMNSLKTEDTAVYYCGSSFGSNYVFAWFTYWGQGTLVTVSS
VL: DIVMTQSPLSLPVTPGEPASISCRSSQRLLSSYGHTYLHWYLQKPGQSPQLLIYEVSNRFSGVPDRFSGSGSGTDFTLKISRVEAEDVGVYYCSQSTHVPLTFGQGTKVEIK
time cells remain partially coated (CCR5 lymphocytes; single 2 mg/kg dose): > 4 weeks | time cells remain partially coated (CCR5 lymphocytes; single 5 mg/kg dose): > 60 days | EC50 (median) (R5 HIV-2 SLRHC; HIV-2 SLRHC, R5): 0.57 µg/mL | EC90 (median) (R5 HIV-2 SLRHC; HIV-2 SLRHC, R5): 21 µg/mL | MPI (maximum percent inhibition) (R5 HIV-2 SLRHC; R5 HIV-2 SLRHC, individual assays (Source)): 104% and 135% and 127% and 150% | MPI, Median (R5 HIV-2 SLRHC; R5 HIV-2 SLRHC, median of assays): 135% | effect on HIV-1 vs chemokine signaling (CCR5 chemokine signaling): blocks HIV-1 but not chemokine signaling | control of viral replication in HIV-1-infected mice (HIV-1JR-CSF): provides prolonged control of viral replication | EC50 (median) (R5 HIV-2 A2270; HIV-2 A2270, R5): 0.12 µg/mL | EC90 (median) (R5 HIV-2 A2270; HIV-2 A2270, R5): 3.5 µg/mL | MPI (maximum percent inhibition) (R5 HIV-2 A2270; R5 HIV-2 A2270, individual assays (Source)): 103% and 101% and 97% | MPI, Median (R5 HIV-2 A2270; R5 HIV-2 A2270, median of assays): 101%

Source: patent US20090074766A1, “Methods of inhibiting HIV-2 infection” (priority 2007, published 2009)
